Reference: patent US6140364A, “Arachidonic acid metabolite, 16-HETE” (The University of Vermont and State Agricultural College, priority 1996, dated 2000)

Key:
[1] = test system: rabbit model of thromboembolic stroke (brain infarct); assay: Brain infarct size in rabbit model of thromboembolic stroke; format: in vivo; conditions: 16-HETE 1 μg/kg per minute for 1 hour from 1 h after embolization, tPA 6.3 mg/kg between 3 and 5 hours
Description: New Zealand rabbits of either sex, weighing 3-4 kilograms were used for the study. Prior to the start of the experiment, the rabbits were divided into three groups, those that were administered either 16-HETE at a rate of 1 μg/kg per minute for one hour, tPA (Genentech, Inc., San Francisco, Calif.) at a concentration of 6.3 mg/kg. 16-HETE plus tPA, or vehicle.
On the day of treatment the animals were fasted for 12 hours with free access to water and then anesthetized with an intramuscular solution of ketamine (50 mg/kg), acepromazine (20 mg) and xylazine (5 mg/kg). This solution was subsequently used to maintain a surgical depth of anesthesia as determined by responses to various physiologic and autonomic stimuli, including mean arterial pressure and response to paw pinch.
The animals were prepared for surgery by introducing femoral venous and arterial catheters (PE50 and 90, respectively; Clay Adams, Parsippany, N.J.). […]
Following determination of all base line values the right common carotid bifurcation is exposed, the internal carotid artery (ICA) isolated, a micro-arteriotomy performed and the 15-mm clot embolized intracranially via the ICA. […] Post embolization rCBF is then determined and the experiment continued if rCBF is reduced to 15 cc /100 gm/minute in at least one of the PT-IR electrodes within the embolized hemisphere. […]

[2] = test system: fibrin; conditions: compared with native tPA or other variants; cited from earlier work
[3] = compared with native tPA; cited from earlier work

B1: tPA: tissue plasminogen activator (Genentech, Inc.), thrombolytic agent (protein, UniProt P00750 36-562, looked up)
Tissue-type plasminogen …: SYQVICRDEKTQMIYQQHQSWLRPVLRSNRVEYCWCNSGRAQCHSVPVKSCSEPRCFNGGTCQQALYFSDFVCQCPEGFAGKCCEIDTRATCYEDQGISYRGTWSTAESGAECTNWNSSALAQKPYSGRRPDAIRLGLGNHNYCRNPDRDSKPWCYVFKAGKYSSEFCSTPACSEGNSDCYFGNGSAYRGTHSLTESGASCLPWNSMILIGKVYTAQNPSAQALGLGKHNYCRNPDGDAKPWCHVLKNRRLTWEYCDVPSCSTCGLRQYSQPQFRIKGGLFADIASHPWQAAIFAKHRRSPGERFLCGGILISSCWILSAAHCFQERFPPHHLTVILGRTYRVVPGEEEQKFEVEKYIVHKEFDDDTYDNDIALLQLKSDSSRCAQESSVVRTVCLPPADLQLPDWTECELSGYGKHEALSPFYSERLKEAHVRLYPSSRCTSQHLLNRTVTDNMLCAGDTRSGGPQANLHDACQGDSGGPLVCLNDGRMTLVGIISWGLGCGQKDVPGVYTKVTNYLDWIRDNMRP
brain infarct size [1]: significantly larger than the 16-HETE group

B2: TNK tPA: triple mutant variant of wild type tPA: T103N, N117Q, KHRR (296-299) AAAA tPA (protein, UniProt P00750 36-562, looked up, variant T103N N117Q K296A H297A R298A R299A)
Tissue-type plasminogen …: SYQVICRDEKTQMIYQQHQSWLRPVLRSNRVEYCWCNSGRAQCHSVPVKSCSEPRCFNGGTCQQALYFSDFVCQCPEGFAGKCCEIDTRATCYEDQGISYRGNWSTAESGAECTNWQSSALAQKPYSGRRPDAIRLGLGNHNYCRNPDRDSKPWCYVFKAGKYSSEFCSTPACSEGNSDCYFGNGSAYRGTHSLTESGASCLPWNSMILIGKVYTAQNPSAQALGLGKHNYCRNPDGDAKPWCHVLKNRRLTWEYCDVPSCSTCGLRQYSQPQFRIKGGLFADIASHPWQAAIFAAAAASPGERFLCGGILISSCWILSAAHCFQERFPPHHLTVILGRTYRVVPGEEEQKFEVEKYIVHKEFDDDTYDNDIALLQLKSDSSRCAQESSVVRTVCLPPADLQLPDWTECELSGYGKHEALSPFYSERLKEAHVRLYPSSRCTSQHLLNRTVTDNMLCAGDTRSGGPQANLHDACQGDSGGPLVCLNDGRMTLVGIISWGLGCGQKDVPGVYTKVTNYLDWIRDNMRP
potency / effectiveness [2]: most effective of the triple mutant variants

B3: C84S tPA: tPA variant in which cysteine at position 84 of the growth factor domain of native tPA is replaced by serine (protein, UniProt P00750 36-562, looked up, variant C84S)
Tissue-type plasminogen …: SYQVICRDEKTQMIYQQHQSWLRPVLRSNRVEYCWCNSGRAQCHSVPVKSCSEPRCFNGGTCQQALYFSDFVCQCPEGFAGKCSEIDTRATCYEDQGISYRGTWSTAESGAECTNWNSSALAQKPYSGRRPDAIRLGLGNHNYCRNPDRDSKPWCYVFKAGKYSSEFCSTPACSEGNSDCYFGNGSAYRGTHSLTESGASCLPWNSMILIGKVYTAQNPSAQALGLGKHNYCRNPDGDAKPWCHVLKNRRLTWEYCDVPSCSTCGLRQYSQPQFRIKGGLFADIASHPWQAAIFAKHRRSPGERFLCGGILISSCWILSAAHCFQERFPPHHLTVILGRTYRVVPGEEEQKFEVEKYIVHKEFDDDTYDNDIALLQLKSDSSRCAQESSVVRTVCLPPADLQLPDWTECELSGYGKHEALSPFYSERLKEAHVRLYPSSRCTSQHLLNRTVTDNMLCAGDTRSGGPQANLHDACQGDSGGPLVCLNDGRMTLVGIISWGLGCGQKDVPGVYTKVTNYLDWIRDNMRP
in vivo / circulatory half life [3]: longer in vivo half life than native tPA
potency / effectiveness [2]: retains the functional activity of native tPA
